This test concerns the target T1, VP16 fused near full-length AR (nAR, aa 36-918) (human, UniProt P10275 36-919).
T1 sequence: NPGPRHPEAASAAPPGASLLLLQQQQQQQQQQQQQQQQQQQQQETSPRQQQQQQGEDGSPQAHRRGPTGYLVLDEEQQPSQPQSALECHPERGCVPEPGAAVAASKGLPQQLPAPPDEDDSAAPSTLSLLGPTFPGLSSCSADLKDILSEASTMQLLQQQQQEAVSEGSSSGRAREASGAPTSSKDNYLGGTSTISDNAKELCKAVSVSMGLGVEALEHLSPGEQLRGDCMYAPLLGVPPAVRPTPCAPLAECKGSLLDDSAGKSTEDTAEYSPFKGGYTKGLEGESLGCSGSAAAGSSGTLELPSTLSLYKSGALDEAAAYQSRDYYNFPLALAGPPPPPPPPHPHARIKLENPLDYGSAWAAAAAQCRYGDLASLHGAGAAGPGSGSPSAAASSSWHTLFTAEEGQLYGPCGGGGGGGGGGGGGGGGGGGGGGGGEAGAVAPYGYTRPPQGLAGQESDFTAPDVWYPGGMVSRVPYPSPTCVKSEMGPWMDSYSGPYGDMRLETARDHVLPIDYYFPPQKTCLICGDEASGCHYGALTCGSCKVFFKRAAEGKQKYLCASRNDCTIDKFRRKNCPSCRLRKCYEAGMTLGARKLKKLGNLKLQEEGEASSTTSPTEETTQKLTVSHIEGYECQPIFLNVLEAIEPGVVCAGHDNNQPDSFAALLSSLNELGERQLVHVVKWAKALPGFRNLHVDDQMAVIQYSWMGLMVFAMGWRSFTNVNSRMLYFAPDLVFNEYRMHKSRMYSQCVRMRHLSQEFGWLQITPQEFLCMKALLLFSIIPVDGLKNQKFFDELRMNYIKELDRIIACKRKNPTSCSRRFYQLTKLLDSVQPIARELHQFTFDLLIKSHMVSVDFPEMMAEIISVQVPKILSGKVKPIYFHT
The test is described as follows: mammalian two-hybrid, DU145, CAT.

The values that follow come from patent US20060270591A1 (published 2006).

B1: PR-LBD (mammalian two-hybrid construct) (receptor, UniProt P06401 679-933, looked up)
chain: QDIQLIPPLINLLMSIEPDVIYAGHDNTKPDTSSSLLTSLNQLGERQLLSVVKWSKSLPGFRNLHIDDQITLIQYSWMSLMVFGLGWRSYKHVSGQMLYFAPDLILNEQRMKESSFYSLCLTMWQIPQEFVKLQVSQEEFLCMKVLLLLNTIPLEGLRSQTQFEEMRSSYIRELIKAIGLRQKGVVSSSQRFYQLTKLLDNLHDLVKQLHLYCLNTFIQSRALSVEFPEMMSEVIAAQLPKILAGMVKPLLFHKK
notes: domain: LBD; Construct not described
As for B1, the binding result is “no binding”.
